Source: patent publication US9308238B2, “Compositions and methods for modulating EMT and uses thereof” (Whitehead Institute for Biomedical Research, priority 2010, dated 2016)

Legend:
[1] = system: MSP-RAS cells; assay: Subcutaneous tumorigenicity assay with proteins co-implanted and injected peri-tumorally; type: in vivo, mice; details: subcutaneous limiting dilutions with protein; peri-tumoral injection at 1, 2, 3 and 7 days
Experimental: FIGS. 4A-4G. Autocrine Signaling controls tumorigenicity and metastasis of MSP-RAS cells. (FIG. 4A) Migration assay: RAS-transformed MSP (MSP-RAS) were seeded in Boyden Chamber migration assays and recombinant SFRP1 (1 μg/ml) and BMP4 protein (0.5 μg/ml) were added; *control vs. single treatment, p<1×10^−8, **single vs. double treatment with SFRP1 and BMP4 (S+B), p<1×10^−4, n=3. […] (FIG. 4E) Lung metastasis: fluorescence microscopy images of the major left lung lobe showing GFP-expressing metastatic nodules and quantification of the number of lung surface metastases; *control vs. SFRP1 treatment, p<0.05, **SFRP1 vs. BMP4 or double treatment (S+B), p<0.05, n=5 mice/group. (FIG. 4F) Liver metastasis: fluorescence microscopy images of the liver surface showing GFP-expressing micro-metastatic nodules after implantation of cells as described in (D) and quantification: 5 fields of liver surface were counted per mouse, *control vs. single treatment, p<0.05, **single vs. double treatment (S+B), p<0.05, n=5 mice/group. […]
Animal studies. […] Lung surface metastases were counted using a fluorescent microscope within 3 hr of specimen isolation.

[2] = system: HMLE-iEMT-a cells; assay: Boyden chamber migration assay, iEMT-cells; type: cell-based, human; details: SFRP1 1 μg/ml/d, BMP4 0.5 μg/ml/d; extent comparable to HTwist and MSP cells
Experimental: FIGS. 5A-5H. Concomitant stimulation of Wnt and TGF-beta pathways allows HMLE^24+ cells to enter into a mesenchymal and SC-like state. (FIG. 5A) RT-PCR: N-Cadherin, Zeb1 and Zeb2, L32 was loading control, n=3. Prior RNA isolation, HMLE^24+-shGFP or -shSFRP1 (stable knockdown of SFRP1, FIG. 12A) cells were treated for 3 days with daily doses of indicated factors: anti-DKK1 antibody (10 μg/ml), anti-E-Cadherin antibody (1 μg/ml), TGF-beta 1 (5 ng/ml), Wnt5a (250 ng/ml), (FIG. 5B) Brightfield microscopy: images of control, TGF-beta- and iEMT-cocktail treated HMLE^24+ cells after 14 days of treatment as indicated (see also FIG. 12D). (FIG. 5C) RT-PCR: Zeb1, Zeb2, E-Cadherin and N-Cadherin, L32 was loading control, n=3. After 14 day treatment, cells were expanded in absence of further stimulation for 4 passages. Shown are PBS-treated control HMLE^24+-shGFP and HMLE^24+-shSFRP1 cells, two HMLE^24+-shGFP cultures treated with TGF-beta 1 (TGF-β-a and -b), two HMLE^24+-shSFRP1 cultures treated with the iEMT-cocktail (iEMT-a and -b). […] (FIG. 5G) Lung metastasis: cells expanded for 8 passages after cessation of treatment as described in (C) were transformed with RAS; 1.0×10^5 cells were injected into the mammary fat pads of mice; GFP-labeled metastases on the surface of the lungs were quantified; *control vs. all other groups, p<0.05, n=5 mice/group. […]

| Molecule | reduction of tumor incidence [1] | effect on migration of iEMT-cells [2] |
| --- | --- | --- |
| BMP4: Recombinant BMP4 protein obtained from Stemgent (protein, UniProt P12644 293-408, looked up) Bone morphogenetic protein 4: SPKHHSQRARKKNKNCRRHSLYVDFSDVGWNDWIVAPPGYQAFYCHGDCPFPLADHLNSTNHAIVQTLVNSVNSSIPKACCVPTELSAISMLYLDEYDKVVLKNYQEMVVEGCGCR | at least one order of magnitude | inhibited |
| SFRP1: Recombinant human SFRP1 protein (R&D Systems), secreted decoy receptor binding canonical and non-canonical Wnt ligands (protein, UniProt Q8N474 32-314, looked up) Secreted frizzled-related …: SEYDYVSFQSDIGPYQSGRFYTKPPQCVDIPADLRLCHNVGYKKMVLPNLLEHETMAEVKQQASSWVPLLNKNCHAGTQVFLCSLFAPVCLDRPIYPCRWLCEAVRDSCEPVMQFFGFYWPEMLKCDKFPEGDVCIAMTPPNATEASKPQGTTVCPPCDNELKSEAIIEHLCASEFALRMKIKEVKKENGDKKIVPKKKKPLKLGPIKKKDLKKLVLYLKNGADCPCHQLDNLSHHFLIMGRKVKSQYLLTAIHKWDKKNKEFKNFMKKMKNHECPTFQSVFK | at least one order of magnitude | inhibited |
